Measurements from the supplement of paper PMC10724198.
± gives the standard deviation of the averaged measurements.

Test system: Saccharomyces cerevisiae
Assay: protein stability index of tFT-peptide fusion (C-terminal peptide) (PSI (0-1 scale)); higher = more stable (slower turnover)
Conditions: temperature: 30 C
Protocol: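 MPS profiling in S. cerevisiae of the yeast C-terminome library: the last 12 aa of each annotated ORF are fused to the C-terminus of a sfGFP-mCherry timer, after a GGGS linker. Cells are FACS-sorted into 8 mCherry/sfGFP bins and deep-sequenced. PSI runs from 0 (unstable) to 1 (stable); wild type and das1Δ backgrounds, two technical replicates each.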

[1] = genetic background: das1 deletion

KYNNYFKIPPKY [BI3 C-terminal 12 aa]
protein stability index [1]: 0.688 ± 0.022
protein stability index (genetic background: wild type): 0.659 ± 0.018

RVSRMRAKRKYQ [YOR300W C-terminal 12 aa]
protein stability index [1]: 0.712 ± 0.034
protein stability index (genetic background: wild type): 0.6764 ± 0.0037

AQLVSLVRNQKH [YLR198C C-terminal 12 aa]
protein stability index [1]: 0.717 ± 0.022
protein stability index (genetic background: wild type): 0.6998 ± 0.005

DTDGMQDQSSNI [IVY1 C-terminal 12 aa]
protein stability index [1]: 0.693 ± 0.019
protein stability index (genetic background: wild type): 0.679 ± 0.019

EAQTSRAKNELS [PHD1 C-terminal 12 aa]
protein stability index [1]: 0.6855 ± 0.004
protein stability index (genetic background: wild type): 0.575 ± 0.011

AFTTYRAFVEPN [PMI40 C-terminal 12 aa]
protein stability index [1]: 0.72 ± 0.044
protein stability index (genetic background: wild type): 0.677 ± 0.0095

QINDLEIYRKRL [SNT309 C-terminal 12 aa]
protein stability index [1]: 0.6847 ± 0.006
protein stability index (genetic background: wild type): 0.68 ± 0.029

EEGIDPSTYLNN [SUB2 C-terminal 12 aa]
protein stability index [1]: 0.709 ± 0.033
protein stability index (genetic background: wild type): 0.684 ± 0.014

KNEQDEDKWDDF [GCS1 C-terminal 12 aa]
protein stability index [1]: 0.729 ± 0.031
protein stability index (genetic background: wild type): 0.672 ± 0.014

VMEEEEQDCKCI [POP8 C-terminal 12 aa]
protein stability index [1]: 0.6923 ± 0.00099
protein stability index (genetic background: wild type): 0.6519 ± 0.0055

SSVRTLDSNIWR [ISC10 C-terminal 12 aa]
protein stability index [1]: 0.7128 ± 0.0013
protein stability index (genetic background: wild type): 0.686 ± 0.024

AVNGSDGQHCQI [AVT2 C-terminal 12 aa]
protein stability index [1]: 0.687 ± 0.023
protein stability index (genetic background: wild type): 0.6543 ± 0.0021

KFNLVTQRENSL [YGR025W C-terminal 12 aa]
protein stability index [1]: 0.697 ± 0.021
protein stability index (genetic background: wild type): 0.695 ± 0.026

LKDQIVETRTPI [ERG27 C-terminal 12 aa]
protein stability index [1]: 0.707 ± 0.042
protein stability index (genetic background: wild type): 0.664 ± 0.02

SIIDKELENIDS [SGD1 C-terminal 12 aa]
protein stability index [1]: 0.731 ± 0.027
protein stability index (genetic background: wild type): 0.681 ± 0.018

MTLDSWQPLTPK [INP53 C-terminal 12 aa]
protein stability index [1]: 0.723 ± 0.016
protein stability index (genetic background: wild type): 0.712 ± 0.03

YENEEIQRKRCI [YOR364W C-terminal 12 aa]
protein stability index [1]: 0.696 ± 0.017
protein stability index (genetic background: wild type): 0.658 ± 0.0062

PKFSKPDPLKRD [SAC1 C-terminal 12 aa]
protein stability index [1]: 0.72 ± 0.01
protein stability index (genetic background: wild type): 0.6853 ± 0.005

EVDDDGEIDGLF [ADE3 C-terminal 12 aa]
protein stability index [1]: 0.7153 ± 0.0044
protein stability index (genetic background: wild type): 0.692 ± 0.021

VLDEEFRNNNAS [RAD26 C-terminal 12 aa]
protein stability index [1]: 0.716 ± 0.0098
protein stability index (genetic background: wild type): 0.69 ± 0.038

IQFFSQCTSCTV [YLR286W-A C-terminal 12 aa]
protein stability index [1]: 0.507 ± 0.0085
protein stability index (genetic background: wild type): 0.5256 ± 0.004

RYIYAYINAQVQ [YHL005C C-terminal 12 aa]
protein stability index [1]: 0.502 ± 0.03
protein stability index (genetic background: wild type): 0.452 ± 0.0055

QQEQDKKKKSNH [PRE6 C-terminal 12 aa]
protein stability index [1]: 0.709 ± 0.013
protein stability index (genetic background: wild type): 0.49 ± 0.013

GLSDEEDSSEED [RRT14 C-terminal 12 aa]
protein stability index [1]: 0.679 ± 0.00072
protein stability index (genetic background: wild type): 0.698 ± 0.021

YAINSGARFDLS [HUL5 C-terminal 12 aa]
protein stability index [1]: 0.713 ± 0.025
protein stability index (genetic background: wild type): 0.687 ± 0.0069

KTRWQRVWDVLS [ALP1 C-terminal 12 aa]
protein stability index [1]: 0.7259 ± 0.0053
protein stability index (genetic background: wild type): 0.207 ± 0.01

NQAIQYANEFQQ [HOG1 C-terminal 12 aa]
protein stability index [1]: 0.701 ± 0.022
protein stability index (genetic background: wild type): 0.715 ± 0.043

EDLDADGDHKLV [TUB4 C-terminal 12 aa]
protein stability index [1]: 0.6839 ± 0.0032
protein stability index (genetic background: wild type): 0.672 ± 0.0083

LSTFFLFHNPCN [YGL239C C-terminal 12 aa]
protein stability index [1]: 0.762 ± 0.022
protein stability index (genetic background: wild type): 0.706 ± 0.079

GGKIFSLKLTLI [YPR108W-A C-terminal 12 aa]
protein stability index [1]: 0.673 ± 0.011
protein stability index (genetic background: wild type): 0.384 ± 0.023

LFCYCSCDSYES [YBL100C C-terminal 12 aa]
protein stability index [1]: 0.646 ± 0.017
protein stability index (genetic background: wild type): 0.668 ± 0.031

EYNLDTFIKTLR [MOT1 C-terminal 12 aa]
protein stability index [1]: 0.7535 ± 0.0064
protein stability index (genetic background: wild type): 0.6883 ± 0.0023

IAVNYCMFGRSY [YHR020W C-terminal 12 aa]
protein stability index [1]: 0.685 ± 0.022
protein stability index (genetic background: wild type): 0.73 ± 0.061

NSSSNESIQVVV [SFK1 C-terminal 12 aa]
protein stability index [1]: 0.706 ± 0.043
protein stability index (genetic background: wild type): 0.696 ± 0.037

LLGAITALFGLI [PLB2 C-terminal 12 aa]
protein stability index [1]: 0.686 ± 0.034
protein stability index (genetic background: wild type): 0.658 ± 0.029

VKYSRIIPPDIR [SUM1 C-terminal 12 aa]
protein stability index [1]: 0.72 ± 0.017
protein stability index (genetic background: wild type): 0.69 ± 0.032

DESVDMNVGISY [YCL046W C-terminal 12 aa]
protein stability index [1]: 0.721 ± 0.0092
protein stability index (genetic background: wild type): 0.718 ± 0.035

LRVYENFQKFIK [YMR262W C-terminal 12 aa]
protein stability index [1]: 0.72 ± 0.054
protein stability index (genetic background: wild type): 0.705 ± 0.04

LGFIQNSTIVCQ [YMR306C-A C-terminal 12 aa]
protein stability index [1]: 0.467 ± 0.028
protein stability index (genetic background: wild type): 0.494 ± 0.019

VKTKFFPLSSSI [YDR199W C-terminal 12 aa]
protein stability index [1]: 0.738 ± 0.02
protein stability index (genetic background: wild type): 0.716 ± 0.026

RVPQSRSFGNLR [NUM1 C-terminal 12 aa]
protein stability index [1]: 0.738 ± 0.012
protein stability index (genetic background: wild type): 0.746 ± 0.038

ANEALQHILDDS [INO2 C-terminal 12 aa]
protein stability index [1]: 0.6882 ± 0.0011
protein stability index (genetic background: wild type): 0.69 ± 0.024

FMWLLLALPVVF [FLO11 C-terminal 12 aa]
protein stability index [1]: 0.362 ± 0.027
protein stability index (genetic background: wild type): 0.393 ± 0.019

LSNMLNQFILNL [YLR202C C-terminal 12 aa]
protein stability index [1]: 0.754 ± 0.058
protein stability index (genetic background: wild type): 0.74991 ± 6.5e-05

GQIVIVHYLYDR [YOR218C C-terminal 12 aa]
protein stability index [1]: 0.422 ± 0.018
protein stability index (genetic background: wild type): 0.445 ± 0.051

LICQTESNPKIV [VPS8 C-terminal 12 aa]
protein stability index [1]: 0.708 ± 0.0091
protein stability index (genetic background: wild type): 0.694 ± 0.036

NLKNGVTLESPE [UBP12 C-terminal 12 aa]
protein stability index [1]: 0.716 ± 0.01
protein stability index (genetic background: wild type): 0.6889 ± 0.0028

QHSRGSPNNSNN [YKU80 C-terminal 12 aa]
protein stability index [1]: 0.701 ± 0.0071
protein stability index (genetic background: wild type): 0.708 ± 0.039

KMPLVPTHYYKQ [GCV1 C-terminal 12 aa]
protein stability index [1]: 0.706 ± 0.0089
protein stability index (genetic background: wild type): 0.6559 ± 0.00066

EGRGYQQIHKLS [YHR139C-A C-terminal 12 aa]
protein stability index [1]: 0.721 ± 0.018
protein stability index (genetic background: wild type): 0.253 ± 0.0035

KLKFLQNTYNND [CCE1 C-terminal 12 aa]
protein stability index [1]: 0.674 ± 0.015
protein stability index (genetic background: wild type): 0.635 ± 0.0079

EIKQRNLRMQRQ [MPO1 C-terminal 12 aa]
protein stability index [1]: 0.683 ± 0.026
protein stability index (genetic background: wild type): 0.678 ± 0.01

RKQAHELRPKSE [SPO7 C-terminal 12 aa]
protein stability index [1]: 0.77 ± 0.024
protein stability index (genetic background: wild type): 0.79 ± 0.019

PNVSYIEEKLNQ [MAS1 C-terminal 12 aa]
protein stability index [1]: 0.702 ± 0.015
protein stability index (genetic background: wild type): 0.717 ± 0.011

VKHAEYAINAFF [YPR147C C-terminal 12 aa]
protein stability index [1]: 0.709 ± 0.018
protein stability index (genetic background: wild type): 0.682 ± 0.026

ELKKRFDALRRK [IST1 C-terminal 12 aa]
protein stability index [1]: 0.686 ± 0.015
protein stability index (genetic background: wild type): 0.647 ± 0.0071

ACELLFENNIDM [PHO81 C-terminal 12 aa]
protein stability index [1]: 0.695 ± 0.015
protein stability index (genetic background: wild type): 0.7517 ± 0.0037

GKTDYLDTKLIF [EKI1 C-terminal 12 aa]
protein stability index [1]: 0.739 ± 0.02
protein stability index (genetic background: wild type): 0.726 ± 0.0084

RKSHERPDDVSV [SUR7 C-terminal 12 aa]
protein stability index [1]: 0.692 ± 0.018
protein stability index (genetic background: wild type): 0.69 ± 0.028

SPEQLKVSLKWH [SKM1 C-terminal 12 aa]
protein stability index [1]: 0.718 ± 0.01
protein stability index (genetic background: wild type): 0.699 ± 0.022

ALQVLEERMVNP [YOL107W C-terminal 12 aa]
protein stability index [1]: 0.7046 ± 0.003
protein stability index (genetic background: wild type): 0.699 ± 0.0077
